B1: library; numbered along this chain (parent)
chain: MATDAALRRLLRLHRTEIAVAVDSAFPLLHALADHDVVPEDKFQETLHLKEKEGCPQAFHALLSWLLTQDSTAILDFWRVLFKDYNLERYGRLQPILDSFPKDVDLSQPRKGRKPPAVPKALVPPPRLPTKRKASEEARAAAPAALTPRGTASPGSQLKAKPPKKPESSAEQQRLPLGNGIQTMSASVQRAVAMSSGDVPGARGAVEGILIQQVFESGGSKKCIQVGGEFYTPSKFEDSGSGKNKARSSSGPKPLVRAKGAQGAAPGGGEARLGQQGSVPAPLALPSDPQLHQKNEDECAVCRDGGELICCDGCPRAFHLACLSPPLREIPSGTWRCSSCLQATVQEVQPRAEEPRPQEPPVETPLPPGLRSAGEEVRGPPGEPLAGMDTTLVYKHLPAPPSAAPLPGLDSSALHPLLCVGPEGQQNLAPGARCGVCGDGTDVLRCTHCAAAFHWRCHFPAGTSRPGTGLRCRSCSGDVTPAPVEGVLAPSPARLAPGPAKDDTASHEPALHRDDLESLLSEHTFDGILQWAIQSMARPAAPFPS

Variants of: B1
Test: AIRE transcriptional activation functional score (insulin promoter-GFP; nonsense median 0, synonymous median 1) (normalised score); higher = higher AIRE activity (more reporter activation)
Settings: with insulin promoter-GFP reporter in HEK293
Method: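 Deep mutational scan of full-length human AIRE (codon-optimized cDNA, DT-POPCode NNN libraries over three regions) integrated at a Bxb1 landing pad in HEK293 cells carrying an insulin core promoter-GFP reporter at a Flp-In site. Cells were sorted for the top 10% GFP about 14 days after transfection. Variant frequency log-ratios (select vs non-select, TileSeq) were rescaled so that the nonsense median is 0 and the synonymous median is 1, then averaged over biological replicates.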

AIRE transcriptional activation functional score of substitutions, site by site:
A134: D 0.263, I 1.43, R 0.538, V 1.34, F 1.29, L 1.11, P -0.0505, M -0.832, C 1.35, S 1.06, H 0.548, E -0.378, Q 1.1, N 1.63, K -3.51
A138: M 2.84, Y 1.36, C 1.51, F 1.13, I 1.06, P 0.857, W 1.66, T 0.99, Q 0.334, S 0.847, D 0.727, R 1.19, N 0.5, E 1.11, H 0.328, L 1.27, G 0.96, K 0.889, V 1.1
A144: F 1.26, L 1.17, P 1.65, V 1.1, W 1.99, H 0.0775, Q 0.126, K 0.364, N 0.39, D 0.251, G 1.31, T 1.02, Y 1.48, I 0.989, M 0.931, R 0.836, E 0.655, C 1.04, S 0.773
T147: A 0.279, N 1.26, Q 0.724, D 0.817, R 1.03, F 1.49, P 0.125, V 0.966, K 0.787, H 1.22, G 0.811, M 1.19, W 1.75, Y 0.76, C 0.358, L 1.05, I 1.16, E 1.45, S 0.771
A141: R 1.02, H 1.12, N 0.447, G 1.28, E 1.49, S 1.01, K 1.19, L 1.36, Y 1.66, F 1.77, T 0.967, P 0.97, C 0.959, I 0.758, Q 1.24, W 1.18, D 1.25, M 0.533, V 1
R139: G 1.2, H 0.679, W 1.54, S 0.893, Q 1.35, C 0.377, A -0.0134, L 1.19, F 1.51, K 1.37, Y 1.25, M 1.04, P 0.0776, T 0.641, D 0.568, N 0.522, E 0.912, I 1, V 0.965
A145: P 0.887, W 2.05, H 1.37, M 0.474, K 0.907, Y 1.66, R 0.804, L 1.19, N 0.349, F 1.23, C 1.07, I 0.806, V 0.722, T 1.21, S 1.4, Q 1.12, E 0.0573, G 1.29, D 0.593
A142: S 0.968, N 0.413, G 1.29, P 0.882, H 0.486, C 1.03, V 1.27, R 0.685, E 1.17, Y 1.14, K 0.314, I 0.926, F 1.16, T 0.704, M 0.975, D 1.05, L 1.17, Q -0.0872, W 1.28
L146: M 0.496, Y 1.24, V 0.912, R 0.262, F 0.9, D 1.73, S 1.03, N 0.353, I 0.888, H 0.618, G 0.344, A 0.454, W 1.42, T 1.09, K 0.924, E 0.882, C 0.639, Q 1.05, P 0.73
